Source: patent US20210269480A1 (published 2021)
*1 amine or outer side, *2 acyl side, *3 side chain or, on linkers, in order; H or OH if unused. Bridges are numbered along the chain shown (N, C = ends). Where no end group is shown, it is not given here. [ ]: non-standard residue; d: D form. TATA = O=C(CC[*:1])N1CN(C(=O)CC[*:2])CN(C(=O)CC[*:3])C1; Phe(4-COOH) = N[C@@H](Cc1ccc(C(=O)O)cc1)C(=O)O; 1Nal = N[C@@H](Cc1cccc2ccccc12)C(=O)O; 2Nal = N[C@@H](Cc1ccc2ccccc2c1)C(=O)O; hArg = N=C(N)NCCCC[C@H](N)C(=O)O; 2Pal = N[C@@H](Cc1ccccn1)C(=O)O; Aze = O=C(O)[C@@H]1CCN1; βAla = NCCC(=O)O; Sar = CNCC(=O)O

Biological target: T1, human Nectin-4 (human, UniProt Q96NY8 32-349)
T1 construct: a Gly32-Ser349 FLAG construct is described only under the SPR assay; also called PVRL4
T1 sequence (looked up): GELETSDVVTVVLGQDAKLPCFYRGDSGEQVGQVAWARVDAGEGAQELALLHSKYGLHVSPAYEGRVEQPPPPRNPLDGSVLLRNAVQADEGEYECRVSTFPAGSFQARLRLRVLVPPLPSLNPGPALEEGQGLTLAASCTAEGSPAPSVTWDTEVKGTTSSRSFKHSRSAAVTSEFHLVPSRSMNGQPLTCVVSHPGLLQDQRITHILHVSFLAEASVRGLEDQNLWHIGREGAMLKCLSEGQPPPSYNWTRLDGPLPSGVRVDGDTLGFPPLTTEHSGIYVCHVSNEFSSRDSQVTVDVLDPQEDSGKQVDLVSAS
Assay: FP competition, tracer SEQ ID NO 217
Procedure: Peptides were diluted to an appropriate concentration in assay buffer as described in the direct binding assay with a maximum of 5% DMSO, then serially diluted 1 in 2. […] Measurements were conducted as for the direct binding assay, however the gain was determined prior to the first measurement. Data analysis was in Systat Sigmaplot version 12.0 where the mP values were fit to a user defined cubic equation to generate a Ki value: […]

Q: Ac-CPFGCMKN[2Nal]SWPIWC (linker 1-5-15 via TATA) [BCY7664] was tested. Which Ki did it give?
A: Its Ki is 70 nM.

Q: For Ac-CPFGCMKNWSWPI[2Nal]C (linker 1-5-15 via TATA) [BCY7667], which Ki is on record?
A: The Ki was 27.3 nM.

Q: Which Ki does the source give for Ac-CPFGCM[hArg]NWSWPIWC (linker 1-5-15 via TATA) [BCY7660] here?
A: Its Ki is 26.2 nM.

Q: With CPF[dD]CM[hArg]NWSTPIWC (linker 1-5-15 via TATA) [BCY7793] as the binder, how does the Ki read?
A: Its Ki is 42 nM.

Q: How did the Ki turn out when ACPFGCMKNWSWPIWCA (linker 2-6-16 via TATA, also called 80-09-02-N002) [BCY428] was run?
A: The Ki was 61 nM.

Q: How did the Ki turn out when [βAla][Sar][Sar][Sar][Sar][Sar]CPF[dD]CM[hArg]NWSWPIWC (linker 7-11-21 via TATA) [BCY7556] was run?
A: The Ki was 26.1 nM.

Q: Which Ki does the source give for Ac-CPF[dD]CM[hArg]NWSTPKWC (linker 1-5-15 via TATA) [BCY8085] here?
A: Its Ki is 15.1 nM.

Q: With Ac-CPF[dD]CL[hArg]NWSTPIWC (linker 1-5-15 via TATA) [BCY8039] as the binder, how does the Ki read?
A: Its Ki is 21.4 nM.

Q: Which Ki does the source give for [βAla][Sar][Sar][Sar][Sar][Sar]CPF[dA]CM[hArg]NWSWPIWC (linker 7-11-21 via TATA) [BCY7557] here?
A: Its Ki is 22.5 nM.

Q: With Ac-CPY[dD]CM[hArg]NWSTPIWC (linker 1-5-15 via TATA) [BCY8040] as the binder, how does the Ki read?
A: Its Ki is 10.8 nM.

Q: {Ac-βAla}-[Sar][Sar][Sar][Sar][Sar]CPF[dA]CM[hArg]NWSWPIWC (linker 6-10-20 via TATA) [BCY7559] was tested. Which Ki did it give?
A: Its Ki is 17 nM.

Q: How did the Ki turn out when Ac-CPF[dD]CK[hArg]NWSTPIWC (linker 1-5-15 via TATA) [BCY7821] was run?
A: Its Ki is 84 nM.

Q: How did the Ki turn out when {Ac-βAla}-[Sar][Sar][Sar][Sar][Sar]CPF[dD]CM[hArg]NWSWPIWC (linker 6-10-20 via TATA) [BCY7558] was run?
A: The Ki was 21.9 nM.

Q: Ac-CPF[dD]CM[hArg]KWSTPIWC (linker 1-5-15 via TATA) [BCY7822] was tested. Which Ki did it give?
A: The Ki was 27 nM.

Q: Which Ki does the source give for Ac-CPF[dD]CL[hArg]NWSTPPWC (linker 1-5-15 via TATA) [BCY8038] here?
A: Its Ki is 8 nM.

Q: For Ac-CPF[dD]CM[hArg]NWSTPPWC (linker 1-5-15 via TATA) [BCY8036], which Ki is on record?
A: The Ki was 7.5 nM.

Q: With Ac-CPFGCMKN[1Nal]SWPIWC (linker 1-5-15 via TATA) [BCY7663] as the binder, how does the Ki read?
A: Its Ki is 25.5 nM.

Q: Which Ki does the source give for Ac-C[Aze]FGCMKNWSWPIWC (linker 1-5-15 via TATA) [BCY7608] here?
A: The Ki was 42 nM.

Q: With Ac-CP[2Pal]GCMKNWSWPIWC (linker 1-5-15 via TATA) [BCY7620] as the binder, how does the Ki read?
A: Its Ki is 246 nM.

Q: With Ac-CPFGCMKNWSWPIWC (linker 1-5-15 via TATA, also called 80-09-02-N008) [BCY7390] as the binder, how does the Ki read?
A: The Ki was 17.1 nM.

Q: For Ac-CPFGCMKNWSWPIYC (linker 1-5-15 via TATA) [BCY7597], which Ki is on record?
A: Its Ki is 169 nM.

Q: Ac-CPFGCMPNWSWPIWC (linker 1-5-15 via TATA) [BCY7614] was tested. Which Ki did it give?
A: Its Ki is 21 nM.

Q: Ac-CPFGCMDNWSWPIWC (linker 1-5-15 via TATA, also called 80-09-02-N048) [BCY7659] was tested. Which Ki did it give?
A: Its Ki is 77.9 nM.

Q: How did the Ki turn out when Ac-CPFGCMKNWSWPIFC (linker 1-5-15 via TATA) [BCY7596] was run?
A: The Ki was 353 nM.

Q: Which Ki does the source give for Ac-CPFGCMKNWSDPIWC (linker 1-5-15 via TATA, also called 80-09-02-N022) [BCY7540] here?
A: The Ki was 357 nM.

Q: Ac-CGFGCMKNWSWPIWC (linker 1-5-15 via TATA) [BCY7607] was tested. Which Ki did it give?
A: Its Ki is 77 nM.

Q: Which Ki does the source give for Ac-CPFGCMKNWSYPIWC (linker 1-5-15 via TATA) [BCY7590] here?
A: The Ki was 38.5 nM.

Q: Which Ki does the source give for Ac-CPFGCMKNWSFPIWC (linker 1-5-15 via TATA) [BCY7589] here?
A: The Ki was 34.5 nM.

Q: Which Ki does the source give for Ac-CPFGCMKDWSWPIWC (linker 1-5-15 via TATA, also called 80-09-02-N050) [BCY7661] here?
A: Its Ki is 29.4 nM.

Q: Ac-CPFGCMSNWSWPIWC (linker 1-5-15 via TATA, also called 80-09-02-N047) [BCY7658] was tested. Which Ki did it give?
A: The Ki was 33.6 nM.

Q: Which Ki does the source give for Ac-CPFGCMKHWSWPIWC (linker 1-5-15 via TATA, also called 80-09-02-N051) [BCY7662] here?
A: Its Ki is 14.8 nM.

Q: Which Ki does the source give for Ac-CPFGCMKNWSTPIWC (linker 1-5-15 via TATA, also called 80-09-02-N054) [BCY7665] here?
A: Its Ki is 24.1 nM.

Q: Ac-QKWCAPL[dA]DYWCNRIC (linker 4-12-16 via TATA) [BCY7639] was tested. Which Ki did it give?
A: Its Ki is 490 nM.

Q: How did the Ki turn out when ACWPLDPYWCGRICA (linker 2-10-14 via TATA) [BCY430] was run?
A: The Ki was 310 nM.

Q: Ac-QKWCAPLSDYWCNRIC (linker 4-12-16 via TATA) [BCY7392] was tested. Which Ki did it give?
A: The Ki was 27.2 nM.

Q: How did the Ki turn out when Ac-AKWCAPLSDYWCNRIC (linker 4-12-16 via TATA) [BCY7622] was run?
A: The Ki was 31 nM.

Q: With Ac-QKWCAPLADYWCNRIC (linker 4-12-16 via TATA) [BCY7627] as the binder, how does the Ki read?
A: Its Ki is 101 nM.

Q: Which Ki does the source give for Ac-QKWCAPLSDYWCNAIC (linker 4-12-16 via TATA) [BCY7632] here?
A: The Ki was 123 nM.

Q: Which Ki does the source give for Ac-QKACAPLSDYWCNRIC (linker 4-12-16 via TATA) [BCY7624] here?
A: The Ki was 571 nM.

Q: How did the Ki turn out when Ac-[dA]KWCAPLSDYWCNRIC (linker 4-12-16 via TATA) [BCY7634] was run?
A: Its Ki is 24 nM.

Q: Which Ki does the source give for Ac-QKWCAALSDYWCNRIC (linker 4-12-16 via TATA) [BCY7625] here?
A: Its Ki is 141 nM.

Q: Which Ki does the source give for Ac-QAWCAPLSDYWCNRIC (linker 4-12-16 via TATA) [BCY7623] here?
A: Its Ki is 21 nM.

Q: Ac-QK[dA]CAPLSDYWCNRIC (linker 4-12-16 via TATA) [BCY7636] was tested. Which Ki did it give?
A: Its Ki is 522 nM.

Q: Ac-Q[dD]WCAPLSDYWCNRIC (linker 4-12-16 via TATA) [BCY7993] was tested. Which Ki did it give?
A: The Ki was 38 nM.

Q: Ac-Q[dA]WCAPLSDYWCNRIC (linker 4-12-16 via TATA) [BCY7635] was tested. Which Ki did it give?
A: The Ki was 15.2 nM.

Q: Which Ki does the source give for Ac-QKWCAPLSDYWCARIC (linker 4-12-16 via TATA) [BCY7631] here?
A: Its Ki is 19 nM.

Q: Which Ki does the source give for Ac-[Phe(4-COOH)]CPFGCMKNWSWPIWC (linker 2-6-16 via TATA) [BCY7656] here?
A: The Ki was 71.9 nM.

Q: Ac-QKWCAPLSDYWC[dA]RIC (linker 4-12-16 via TATA) [BCY7643] was tested. Which Ki did it give?
A: The Ki was 19 nM.

Q: With QKWCAPLSXYWCNRIC (N-terminal Ac; TATA on 3 Cys) [BCY7640] as the binder, how does the Ki read?
A: The Ki was 86 nM.

Q: For Ac-[dD]CPFGCMKNWSWPIWC (linker 2-6-16 via TATA) [BCY7606], which Ki is on record?
A: The Ki was 34 nM.

Q: How did the Ki turn out when Ac-CPFK(Ac)CMKNWSWPIWC (linker 1-5-15 via TATA) [BCY7611] was run?
A: Its Ki is 205 nM.

Q: How did the Ki turn out when ACPFGCMRNWSWPIWCA (linker 2-6-16 via TATA, also called 80-09-02-N003) [BCY429] was run?
A: The Ki was 42.6 nM.
